Reference: paper doi:10.1101/791277

Legend:
p85α nSH2, 325-430 = p85α nSH2, 325-430 (UniProt P27986); experiment: fluorescence polarization titration; conditions: reference: unphosphorylated p85β peptide; sites Y599
p85β nSH2, 312-425 = p85β nSH2, 312-425 (UniProt O08908); experiment: fluorescence polarization titration; conditions: reference: unphosphorylated p85β peptide; sites Y599
Chain of p85β nSH2, 312-425 (O08908 whole entry, looked up, tested part not stated): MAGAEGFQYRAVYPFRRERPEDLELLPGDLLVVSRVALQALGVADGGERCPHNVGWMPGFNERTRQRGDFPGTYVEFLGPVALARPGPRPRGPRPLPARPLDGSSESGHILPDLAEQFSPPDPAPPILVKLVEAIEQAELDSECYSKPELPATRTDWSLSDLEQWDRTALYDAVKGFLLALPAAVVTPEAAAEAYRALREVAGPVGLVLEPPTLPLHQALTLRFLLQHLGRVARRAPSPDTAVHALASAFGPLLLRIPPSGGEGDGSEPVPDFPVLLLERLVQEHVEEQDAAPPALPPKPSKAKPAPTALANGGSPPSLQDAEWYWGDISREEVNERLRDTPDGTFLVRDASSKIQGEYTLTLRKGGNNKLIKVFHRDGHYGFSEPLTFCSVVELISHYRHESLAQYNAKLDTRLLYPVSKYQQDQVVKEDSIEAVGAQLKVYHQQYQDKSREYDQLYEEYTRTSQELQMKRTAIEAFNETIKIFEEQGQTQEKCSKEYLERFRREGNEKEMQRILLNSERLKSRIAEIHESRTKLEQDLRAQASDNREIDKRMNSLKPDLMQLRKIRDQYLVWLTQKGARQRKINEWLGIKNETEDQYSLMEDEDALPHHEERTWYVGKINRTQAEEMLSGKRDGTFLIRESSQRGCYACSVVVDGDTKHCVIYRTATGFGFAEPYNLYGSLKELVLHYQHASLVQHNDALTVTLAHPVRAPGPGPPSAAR

Chain of p85α nSH2, 325-430 (P27986 whole entry, looked up, tested part not stated): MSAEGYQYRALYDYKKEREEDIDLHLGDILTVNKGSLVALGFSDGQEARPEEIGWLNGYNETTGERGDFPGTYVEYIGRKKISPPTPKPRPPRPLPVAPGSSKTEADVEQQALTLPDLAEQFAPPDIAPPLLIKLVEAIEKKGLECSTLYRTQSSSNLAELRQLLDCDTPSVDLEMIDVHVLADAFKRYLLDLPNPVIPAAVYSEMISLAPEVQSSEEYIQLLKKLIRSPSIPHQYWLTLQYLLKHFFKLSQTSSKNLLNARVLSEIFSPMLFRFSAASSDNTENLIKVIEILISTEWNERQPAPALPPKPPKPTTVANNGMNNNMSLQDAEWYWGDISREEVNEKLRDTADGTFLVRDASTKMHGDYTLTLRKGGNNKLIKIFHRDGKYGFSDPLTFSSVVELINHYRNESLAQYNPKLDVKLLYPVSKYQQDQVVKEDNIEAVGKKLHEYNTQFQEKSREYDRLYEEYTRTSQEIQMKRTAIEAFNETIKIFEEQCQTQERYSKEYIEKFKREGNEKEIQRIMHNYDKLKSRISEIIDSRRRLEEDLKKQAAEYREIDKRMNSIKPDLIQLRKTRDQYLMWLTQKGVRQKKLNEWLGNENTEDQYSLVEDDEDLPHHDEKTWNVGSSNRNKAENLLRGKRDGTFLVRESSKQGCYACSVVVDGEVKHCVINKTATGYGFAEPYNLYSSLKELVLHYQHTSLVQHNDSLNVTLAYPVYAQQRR
Chain of p85β (O08908 312-425, change not shown): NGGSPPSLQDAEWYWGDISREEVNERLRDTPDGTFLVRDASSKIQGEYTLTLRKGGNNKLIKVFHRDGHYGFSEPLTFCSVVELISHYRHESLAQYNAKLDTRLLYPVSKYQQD

## p85β (from UniProt O08908) phospho-p85β peptide
p85α nSH2, 325-430
  binding against the reference: gained
p85β nSH2, 312-425
  binding against the reference: gained
